For assay [1], the target named is T1, FITC labeled (M^OA)155E60 (not fully specified; L-methionine sulfoxide (M^O) residues in the statistical M^O/A segment; fluorescein isothiocyanate (FITC) conjugated onto the N-terminal amine).
T1 construct: Fluorescently labeled form of (M^OA)155E60 used for confocal microscopy; also called E labeled (FITC)
T1 chain: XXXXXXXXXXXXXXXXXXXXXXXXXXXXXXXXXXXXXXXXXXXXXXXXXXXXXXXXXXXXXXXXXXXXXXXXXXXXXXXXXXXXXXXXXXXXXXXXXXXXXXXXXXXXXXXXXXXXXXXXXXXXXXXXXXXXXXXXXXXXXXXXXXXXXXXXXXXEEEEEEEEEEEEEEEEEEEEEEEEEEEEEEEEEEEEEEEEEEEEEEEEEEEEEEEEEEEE
The assay is described as follows: laser scanning confocal microscopy of fluorescently labeled hydrogel, 3.0 wt % in PBS. The source says: Laser scanning confocal microscopy (LSCM) was then used to visualize the labeled chains and the hydrogel network (FIG. 3A-3B).
Example 8—Laser Scanning Confocal Microscopy (LSCM) of Fluorescently Labeled Hydrogels LSCM images of hydrogels (3.0 wt % in PBS) were taken on a Leica TCS-SP1 MP-Inverted Confocal and Multiphoton Microscope equipped with an argon laser (476 and 488 nm blue lines), a diode (DPSS) laser (561 nm yellow-green line), and a helium-neon laser (633 nm far red line). Fluorescently labeled hydrogel samples were visualized on glass slides with a spacer between the slide and the cover slip (double-sided tape) allowing the self-assembled structures to be minimally disturbed during focusing. A Z-slice thickness of 0.78 µm was used. Sample imaging was performed at the Advanced Light Microscopy/Spectroscopy Center (ALMS) at the UCLA California NanoSystems Institute (CNSI).

The target in assay [2] is T2, poly(L-methionine sulfoxide0.88-stat-L-alanine0.12)155-block-poly(L-glutamate)60, (M^OA)155E60 (not fully specified; L-methionine sulfoxide (M^O) residues in the statistical M^O/A segment (ca. 88 mol % M^O, 12 mol % Ala)).
T2 chain: T1 chain
Description: mixing of equal volumes of 5.0 wt % solutions in 1xPBS; polyion complex hydrogel formation.

Assay [3] addresses T3, poly(L-methionine sulfoxide-stat-L-alanine)155-block-poly(L-glutamate-Na)120, (M^OA)155E120 (not fully specified; L-methionine sulfoxide (M^O) residues in the statistical M^O/A segment (ca. 88 mol % M^O, 12 mol % Ala)).
T3 chain: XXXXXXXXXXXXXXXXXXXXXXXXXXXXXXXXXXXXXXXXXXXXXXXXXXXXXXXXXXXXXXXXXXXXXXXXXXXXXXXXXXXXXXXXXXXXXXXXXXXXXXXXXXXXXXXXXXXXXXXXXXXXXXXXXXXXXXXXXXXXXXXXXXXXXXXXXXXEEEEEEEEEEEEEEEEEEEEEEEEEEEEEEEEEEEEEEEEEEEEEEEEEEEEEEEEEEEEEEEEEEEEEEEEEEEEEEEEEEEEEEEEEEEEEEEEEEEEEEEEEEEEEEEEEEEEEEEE
The assay is described as above.

Assay [4] deals with T4, poly(L-methionine sulfoxide-stat-L-alanine)155-block-poly(L-glutamate-Na)90, (M^OA)155E90 (not fully specified; L-methionine sulfoxide (M^O) residues in the statistical M^O/A segment (ca. 88 mol % M^O, 12 mol % Ala)).
T4 chain: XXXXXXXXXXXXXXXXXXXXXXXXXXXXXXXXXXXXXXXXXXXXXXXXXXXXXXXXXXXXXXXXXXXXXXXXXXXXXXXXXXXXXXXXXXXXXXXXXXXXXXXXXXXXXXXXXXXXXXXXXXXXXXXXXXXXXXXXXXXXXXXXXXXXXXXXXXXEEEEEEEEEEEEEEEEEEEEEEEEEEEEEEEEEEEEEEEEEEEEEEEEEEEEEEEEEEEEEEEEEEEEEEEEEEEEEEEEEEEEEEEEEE
Description: mixing of length-mismatched copolypeptides at E to K stoichiometry; hydrogel formation.

In assay [5] the target is T5, poly(L-methionine sulfoxide-stat-L-alanine)155-block-poly(L-glutamate-Na)30, (M^OA)155E30 (not fully specified; L-methionine sulfoxide (M^O) residues in the statistical M^O/A segment (ca. 88 mol % M^O, 12 mol % Ala)).
T5 chain: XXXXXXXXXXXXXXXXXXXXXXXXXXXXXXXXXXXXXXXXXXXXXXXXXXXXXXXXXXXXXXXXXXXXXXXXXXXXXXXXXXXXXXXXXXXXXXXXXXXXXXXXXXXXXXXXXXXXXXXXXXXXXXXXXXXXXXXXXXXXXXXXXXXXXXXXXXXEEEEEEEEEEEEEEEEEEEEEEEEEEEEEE
Description: mixing of equal volumes of 5.0 wt % solutions in 1xPBS; polyion complex hydrogel formation.

Assay [6] addresses T4, poly(L-methionine …). The assay is described as above.

B1: TRITC labeled (M^OA)155K60 (other)
chain: XXXXXXXXXXXXXXXXXXXXXXXXXXXXXXXXXXXXXXXXXXXXXXXXXXXXXXXXXXXXXXXXXXXXXXXXXXXXXXXXXXXXXXXXXXXXXXXXXXXXXXXXXXXXXXXXXXXXXXXXXXXXXXXXXXXXXXXXXXXXXXXXXXXXXXXXXXXKKKKKKKKKKKKKKKKKKKKKKKKKKKKKKKKKKKKKKKKKKKKKKKKKKKKKKKKKKKK
modifications: X: randomised place (mixture); also: positions 1-155 statistical Met(O)/Ala copolymer, polydisperse, nominal block lengths, TRITC on an unspecified Lys side chain, about 1 probe per 5 chains, Lys as HCl salt
notes: Fluorescently labeled form of (M^OA)155K60 used for confocal microscopy; also called K labeled (TRITC)
Turning to B1, the binding result in assay [1] is listed as “binds”.

B2: poly(L-methionine sulfoxide0.88-stat-L-alanine0.12)155-block-poly(L-lysine)60, (M^OA)155K60 (other)
chain: B1 chain
modifications: not fully specified; X: randomised place (mixture); also: X1-155: Met(O) or Ala, statistical (ca. 88 mol % Met(O), 12 mol % Ala), HCl salt
As to B2, the binding result with poly(L-methionine …) [2] was “binds”.

B3: poly(L-methionine sulfoxide-stat-L-alanine)155-block-poly(L-lysine-HCl)120, (M^OA)155K120 (other)
chain: XXXXXXXXXXXXXXXXXXXXXXXXXXXXXXXXXXXXXXXXXXXXXXXXXXXXXXXXXXXXXXXXXXXXXXXXXXXXXXXXXXXXXXXXXXXXXXXXXXXXXXXXXXXXXXXXXXXXXXXXXXXXXXXXXXXXXXXXXXXXXXXXXXXXXXXXXXXKKKKKKKKKKKKKKKKKKKKKKKKKKKKKKKKKKKKKKKKKKKKKKKKKKKKKKKKKKKKKKKKKKKKKKKKKKKKKKKKKKKKKKKKKKKKKKKKKKKKKKKKKKKKKKKKKKKKKKKK
modifications: X: randomised place (mixture); also: X1-155: Met(O) or Ala, statistical (ca. 88 mol % Met(O)), polydisperse, lengths nominal, HCl salt
B3: the binding result with poly(L-methionine …) [3] is given as “binds”.

B4: poly(L-methionine sulfoxide-stat-L-alanine)155-block-poly(L-lysine-HCl)30, (M^OA)155K30 (other)
chain: XXXXXXXXXXXXXXXXXXXXXXXXXXXXXXXXXXXXXXXXXXXXXXXXXXXXXXXXXXXXXXXXXXXXXXXXXXXXXXXXXXXXXXXXXXXXXXXXXXXXXXXXXXXXXXXXXXXXXXXXXXXXXXXXXXXXXXXXXXXXXXXXXXXXXXXXXXXKKKKKKKKKKKKKKKKKKKKKKKKKKKKKK
modifications: not fully specified; L-methionine sulfoxide (M^O) residues in the statistical M^O/A segment (ca. 88 mol % M^O, 12 mol % Ala)
For the molecule B4, the binding result with poly(L-methionine …) [4] and with poly(L-methionine …) [5] was “binds” throughout.

B5: poly(L-methionine sulfoxide-stat-L-alanine)155-block-poly(L-lysine-HCl)90, (M^OA)155K90 (other)
chain: XXXXXXXXXXXXXXXXXXXXXXXXXXXXXXXXXXXXXXXXXXXXXXXXXXXXXXXXXXXXXXXXXXXXXXXXXXXXXXXXXXXXXXXXXXXXXXXXXXXXXXXXXXXXXXXXXXXXXXXXXXXXXXXXXXXXXXXXXXXXXXXXXXXXXXXXXXXKKKKKKKKKKKKKKKKKKKKKKKKKKKKKKKKKKKKKKKKKKKKKKKKKKKKKKKKKKKKKKKKKKKKKKKKKKKKKKKKKKKKKKKKKK
modifications: not fully specified; X: randomised place (mixture); also: X1-155: Met(O) or Ala, statistical (ca. 88 mol % Met(O)), HCl salt
Turning to B5, the binding result with poly(L-methionine …) [6] is reported as “binds”.

(Values after patent US12226546 (University of California, dated 2025).)
